Earlier results as cited in publication PMC8359934.

Target: sNUCB1 (Homo sapiens) (UniProt Q02818)
Experiment: SEC-MALS

Kd: 260 nM
Substance: sNUCB1 (from UniProt Q02818)
